Sequences and labels used below:
B1: PA1StdG (structured_DNA)
DNA: AGAGAGCGTCGTGTGGACCATGGGGTGAGTGGGTAGGTGTCCTGAGGAGGTGCGCAAGT
B2: PA1StdA (structured_DNA)
DNA: B1 DNA with G24A, G32A

Positions count from the first letter of the chain named.

Chain of PA63 (cleaved protective antigen) (P13423 197-764): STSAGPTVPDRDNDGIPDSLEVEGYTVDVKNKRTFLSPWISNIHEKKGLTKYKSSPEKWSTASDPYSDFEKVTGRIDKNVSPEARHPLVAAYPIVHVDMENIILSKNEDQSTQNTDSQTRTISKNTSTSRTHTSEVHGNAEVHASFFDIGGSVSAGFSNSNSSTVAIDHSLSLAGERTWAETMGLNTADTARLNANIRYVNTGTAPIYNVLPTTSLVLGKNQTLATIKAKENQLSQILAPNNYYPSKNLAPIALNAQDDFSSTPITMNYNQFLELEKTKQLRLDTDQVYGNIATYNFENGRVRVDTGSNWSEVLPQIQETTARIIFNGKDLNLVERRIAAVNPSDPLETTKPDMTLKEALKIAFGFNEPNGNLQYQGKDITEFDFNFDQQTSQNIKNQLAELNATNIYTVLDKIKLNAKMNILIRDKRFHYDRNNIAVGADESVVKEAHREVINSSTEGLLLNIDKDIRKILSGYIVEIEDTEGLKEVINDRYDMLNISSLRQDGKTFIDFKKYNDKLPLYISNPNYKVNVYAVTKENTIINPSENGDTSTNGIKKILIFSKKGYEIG

The data set has as its target PA63 (cleaved protective antigen) (Bacillus anthracis, UniProt P13423 197-764). The experiment in a line: filter binding.
Regarding CGTGTGGACCATGGGGTGAGTGGGTAGGTGTCCTGAGGAGGT (structured_DNA) [PA1T4StdG], the binding result is on record as “no binding”.

Regarding CGTGTGGACCATGGAGTGAGTGAGTAGGTGTCCTGAGGAGGT (structured_DNA) [PA1T4StdA], the binding result was “no binding”.

For the molecule B1, the binding result was “no binding”. Next, B2: “no binding”.

(Values after paper PMC5175368.)
